What was measured:
Format in all cases: cell-based, mouse
[1] = system: EO771 cells; assay: Western blot of proteins in treated tumor cells
Description: (§1) Western blot analysis and mass spectrometry. Western blot analysis was conducted using known procedures. Antibodies were used against ANXA1, β-catenin, caspase 3, Lrp5, Lrp6, Runx2, Sclerostin, Snail, TGFβ, NFATc1, cathepsin K (Cell Signaling, Danvers, MA, USA), DMP1, ANXA6, CXCL5 (Abcam, Cambridge, MA, USA), M-CSF, MMP9, OPN, TPM4 (Santa Cruz, Dallas, TX, USA), WISP1 (R&D systems, Minneapolis, MN, USA), β-actin (Sigma, Saint Louis, MO, USA), LIMA1, Trail (Novus, Centennial, CO, USA), p53 and CXCL1 (Invitrogen, Carlsbad, California, USA), and DSP (ProteinTech, Rosemont, IL, USA). The expression levels of Sclerostin and Lrp5 in CM were detected by ELISA (My BioSource, San Diego, CA, USA). Proteins from A5 osteocyte CM, Y4 osteocyte CM, and osteoclast control CM (RAW264.7 cells) were analyzed by the HF Hybrid Quadrupole Orbitrap mass spectrometry. Among 549 identified proteins, 49 proteins presented higher expression levels in A5 CM than Y4 CM and control CM. Among them, 11 proteins (p53; SPARC=osteonectin; TPM1, TPM4=tropomyosin 1 & 4; ANXA1, ANXA6=annexin A1 & A6; FMOD=fibromodulin; OGN=osteoglycin; DSP=desmoplakin; AHNAK=desmoyokin; and LIMA1=LEVI domain actin-binding protein 1) were identified as potential tumor suppressors.
(§2) Western blot analysis and protein array analysis. Western blot analysis was conducted using the procedure previously described. Antibodies against Lrp5, Runx2, Snail, TGFβ, sclerostin, Calr, p-eIF2α, eIF2α (Cell Signaling, Danvers, MA, USA), LIF, Trail (Novus Biologicals, Centennial, CO, USA), MMP9, NFATc1, cathepsin K (Santa Cruz Biotechnology, Dallas, TX, USA), p53, CXCL2, Ppib (Invitrogen, Carlsbad, CA, USA), Hsp90ab1 (Abcam, Cambridge, UK), and β-actin (Sigma, Saint Louis, MO, USA) were used. A proteome profiler mouse XL cytokine array kit (R&D Systems, Minneapolis, MN, USA) was also employed, and the expression of 111 cytokines and chemokines in MSC-derived CM was determined.
Spheroid assay, plasmid transfection, and Western blot analysis. […]

[2] = system: RANKL-stimulated RAW264.7 pre-osteoclasts; assay: Western blot of NFATc1 and cathepsin K
Description: as §1, with “Among them, 11 proteins (p53; SPARC=osteonectin; TPM1, TPM4=tropomyosin 1 & 4; ANXA1, ANXA6=annexin A1 & A6; FMOD=fibromodulin; OGN=osteoglycin; DSP=desmoplakin; AHNAK=desmoyokin; and LIMA1=LEVI domain actin-binding protein 1) were identified as potential tumor suppressors.” left out
Western blot analysis and protein array analysis. […] A proteome profiler mouse XL cytokine array kit (R&D Systems, Minneapolis, MN, USA) was also employed, and the expression of 111 cytokines and chemokines in MSC-derived CM was determined.
Western blot analysis. […] The protein concentration was determined using a BCA Protein Assay kit (Thermo-Fisher). […]

[3] = system: TRAMP cells; assay: Western blot of proteins in treated tumor cells
Description: as §2
Western blot analysis. Cultured cells were lysed in a radio-immunoprecipitation assay buffer with protease inhibitors (Santa Cruz Biotechnology, Santa Cruz, CA, USA) and phosphatase inhibitors (Calbiochem, Billerica, MA, USA). The protein concentration was determined using a BCA Protein Assay kit (Thermo-Fisher). Proteins were fractionated by 10-15% SDS gels and electro-transferred to polyvinylidene difluoride transfer membranes (Millipore, Billerica, MA, USA). […] The level of proteins was determined using a SUPERSIGNAL™ west femto maximum sensitivity substrate (Thermo Scientific, Waltham, MA, USA), and a luminescent image analyzer (LAS-3000, Fuji Film, Tokyo, Japan) was used to quantify signal intensities. […]

B1: Trail: recombinant TRAIL proteins, apoptosis-inducing factor (protein, UniProt P50592 1-291, looked up)
Tumor necrosis factor ligand …: MPSSGALKDLSFSQHFRMMVICIVLLQVLLQAVSVAVTYMYFTNEMKQLQDNYSKIGLACFSKTDEDFWDSTDGEILNRPCLQVKRQLYQLIEEVTLRTFQDTISTVPEKQLSTPPLPRGGRPQKVAAHITGITRRSNSALIPISKDGKTLGQKIESWESSRKGHSFLNHVLFRNGELVIEQEGLYYIYSQTYFRFQEAEDASKMVSKDKVRTKQLVQYIYKYTSYPDPIVLMKSARNSCWSRDAEYGLYSIYQGGLFELKKNDRIFVSVTNEHLMDLDQEASFFGAFLIN
tumor-promoting/tumorigenic proteins (Lrp5, MMP9, Runx2, TGFβ, Snail, IL1β etc.) in EO771 cells [1]: reduced
NFATc1 and cathepsin K [2]: decreased
cleaved caspase 3 in TRAMP cells [3]: increase
tumor-promoting genes (Lrp5, Runx2, MMP9, Snail, TGFβ) in TRAMP cells ([3]; Western blot): downregulated

Source: US20240165165A1, “PHARMACEUTICAL COMPOSITIONS AND THEIR METHODS OF USE” (The Trustees of Indiana University, priority 2021, published 2024)
